The values below come from paper PMC10641899, “Identification of HuR–RNA Interfering Compounds by Dynamic Combinatorial Chemistry and Fluorescence Polarization”.

The data set concerns the target HuR RRM1+2 (RRM1/2) (UniProt Q15717 1-186). Briefly: fluorescence polarization; 2.4 uM HuR RRM1/2, 45 nM RNA, 15% DMSO; complex 105 mP vs free RNA 35 mP; FP: PBS (20 mM sodium phosphate, 150 mM NaCl, 1 mM DTT, 0.05% Pluronic-127, 15% DMSO), 293 K; pH not stated. The settings on record: protein: recombinant; tags: N-terminal His6-TEV, tag cleaved and removed; label: 5'-FAM; single strand. (Fluorescence polarisation rises when a labelled molecule tumbles more slowly, as on binding a larger partner.)

Chain of HuR RRM1+2 (RRM1/2) (Q15717 1-186): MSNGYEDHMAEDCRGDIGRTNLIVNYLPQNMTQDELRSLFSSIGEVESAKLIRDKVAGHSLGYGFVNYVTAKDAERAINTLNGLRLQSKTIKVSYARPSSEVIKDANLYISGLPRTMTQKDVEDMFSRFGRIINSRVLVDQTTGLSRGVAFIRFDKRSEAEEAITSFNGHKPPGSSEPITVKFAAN

Turning to UAUUUAUUUA (ssRNA) [5'-FAM ARE RNA probe], the binding result was “binds”.
